For one substance, stoichiometry N results are on record in article PMC10434076.

Broadly, the stoichiometry N is a count of units in the complex or per binding partner.

The target of this assay is Campylobacter jejuni resistance enhancing CmeB (RE-CmeB) multidrug efflux pump (C. jejuni). Description: cryo-EM structure; single-particle cryo-EM of 20 uM RE-CmeB in lipidic nanodiscs (MSP 1E3D1, E. coli total extract lipid; 20 mM Tris-HCl pH 7.5, 100 mM NaCl); apo, with fortuitous hydrolyzed ampicillin, or incubated with 1 mM Cip, Ery or Chl for 2 h on ice.

Regarding “Campylobacter jejuni resistance enhancing CmeB (RE-CmeB) multidrug efflux pump (natural protein)”, the stoichiometry N was found to be 3.
